Bridge positions count the residues as written; N and C are the ends. Square brackets hold non-standard residues; d marks the D form. Ends that are not written are not given here. hCys = N[C@@H](CCS)C(=O)O; Nle = CCCC[C@H](N)C(=O)O
How the values were obtained:
bovine trypsin = bovine trypsin (bovine, UniProt P00760 24-246); test: trypsin inhibition, BApNA substrate
Method: The substrates N-succinyl-Ala-Ala-Pro-Phe-p-nitroaniline (AAPFpNA), Nα—Benzoyl-L-arginine-4-nitroaniline hydrochloride (BApNA) and N-succinyl-[…] (AAApNA) are used in competitive binding reaction to determine the inhibitory activities against α-chymotrypsin, bovine trypsin, and porcine pancreatic elastase, respectively. Experiments for α-chymotrypsin and bovine trypsin inhibition were measured in 20 mM CaCl₂, 50 mM Tris-HCl buffer (pH 7.8), and that for porcine elastase inhibition was measured in 50 mM Tris-HCl buffer (pH 8.0). The concentration of the peptide was measured using optical density (OD) at 280 nm. The Michaelis constant (Kₘ) of the enzyme hydrolysis substrate is calculated from the initial rate of substrate hydrolysis at 405 nm. The absorbance value of the substrate was measured at 405 nm after complete hydrolysis. All data were processed using nonlinear regression.
(1) Added a total 190 μL of reaction buffer (20 mM CaCl₂ and 50 mM Tris-HCl, pH 7.8) along with different concentrations of anti-trypsin peptides (BTs) into the pre-cooled 96-well plate, followed by preheating at 37° C., and spined down at 500 rpm for 5 min. Next added 10 μL of 1 μM trypsin, incubated at 37° C., and then spined down at 500 rpm for 10 min. Finally, added 5 μL of 50 mM BApNA, and mixed by centrifugation at 500 rpm for 1 min. […] The experiment was performed in triplicate. The blank control only contained the reaction buffer and the substrate as the minimum absorption value (Min OD_{405 nm}). The negative control only contained the reaction buffer, the enzyme and the substrate as the maximum absorption value (Max OD_{405 nm}). […] (2) In the reaction system of 205 μL, the final concentrations of trypsin and BApNA were 50 nM and 1.22 mM, respectively. [0456] (3) Data statistics

[1] = target: T1, porcine pancreatic elastase (porcine, UniProt P00772 27-266); test: elastase inhibition, Ki=IC50/(1+S/Km)
T1 construct: substrate AAApNA

[2] = target: T1, porcine pancreatic elastase; test: elastase inhibition, AAApNA substrate, OD405

bovine trypsin, sequence (P00760 24-246): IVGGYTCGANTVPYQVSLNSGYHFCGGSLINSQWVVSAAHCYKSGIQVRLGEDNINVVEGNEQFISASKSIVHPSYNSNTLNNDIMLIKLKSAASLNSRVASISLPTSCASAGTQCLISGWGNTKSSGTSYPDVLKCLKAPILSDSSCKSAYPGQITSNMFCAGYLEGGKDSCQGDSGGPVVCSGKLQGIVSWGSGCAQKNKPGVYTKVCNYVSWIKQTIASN
T1 sequence (P00772 27-266 limits assumed): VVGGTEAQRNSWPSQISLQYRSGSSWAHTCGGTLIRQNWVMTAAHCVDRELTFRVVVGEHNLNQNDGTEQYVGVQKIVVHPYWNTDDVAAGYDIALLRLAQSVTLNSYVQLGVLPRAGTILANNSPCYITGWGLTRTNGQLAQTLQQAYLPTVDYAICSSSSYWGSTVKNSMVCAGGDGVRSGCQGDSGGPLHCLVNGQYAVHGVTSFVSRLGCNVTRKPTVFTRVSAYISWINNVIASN

Binder	IC50 (bovine trypsin) [nM]	Ki (bovine trypsin) [nM]	Ki [1] [nM]	IC50 [2] [nM]
CGRATKSIPPQCY (disulfide 1-12 (inferred)) [BT12]	8460	1800	–	–
RCTKSNPPQCQ (disulfide 2-10 (inferred)) [BT64]	3430	730	–	–
ACTKSNPPQCR (disulfide 2-10 (inferred)) [BT68]	2430	520	–	–
CGRFTKSIPPICF (disulfide 1-12 (inferred)) [BT52]	130	30	–	–
CLRATKSIPPICF (disulfide 1-12 (inferred)) [BT72]	130	30	–	–
CVRATKSIPPICF (disulfide 1-12 (inferred)) [BT71]	110	20	–	–
CGRNTKSIPPICF (disulfide 1-12 (inferred)) [BT55]	300	60	–	–
CGRQTKSIPPICF (disulfide 1-12 (inferred)) [BT54]	60	10	–	–
CARATKSIPPICF (disulfide 1-12 (inferred)) [BT67]	50	10	–	–
CSRATKSIPPICF (disulfide 1-12 (inferred)) [BT75]	40	8.5	–	–
CGRWTKSIPPICF (disulfide 1-12 (inferred)) [BT57]	130	30	–	–
CGRGTKSIPPICF (disulfide 1-12 (inferred)) [BT60]	430	90	–	–
CERATKSIPPICF (disulfide 1-12 (inferred)) [BT78]	30	6.4	–	–
CGRYTKSIPPICF (disulfide 1-12 (inferred)) [BT53]	120	30	–	–
CGRHTKSIPPICF (disulfide 1-12 (inferred)) [BT56]	110	20	–	–
CRRATKSIPPICF (disulfide 1-12 (inferred)) [BT76]	50	10	–	–
CIRATKSIPPICF (disulfide 1-12 (inferred)) [BT73]	120	30	–	–
CQRATKSIPPICF (disulfide 1-12 (inferred)) [BT79]	50	10	–	–
CGRETKSIPPICF (disulfide 1-12 (inferred)) [BT58]	120	30	–	–
CGRPTKSIPPICF (disulfide 1-12 (inferred)) [BT59]	26300	5590	–	–
CPRATKSIPPICF (disulfide 1-12 (inferred)) [BT66]	60	10	–	–
CKRATKSIPPICF (disulfide 1-12 (inferred)) [BT77]	40	8.5	–	–
LCTASIPPICQ (disulfide 2-10 (inferred), disulfide bond between the two Cys) [EC12]	–	–	110	400

Binder	IC50 (bovine trypsin) [nM]	Ki (bovine trypsin) [nM]	Ki [1] [nM]	IC50 [2] [nM]
LCTASIPPQCQ (disulfide 2-10 (inferred), disulfide bond between the two Cys) [EC18]	–	–	270	960
ICTASIPPQCQ (disulfide 2-10 (inferred), disulfide bond between the two Cys) [EC19]	–	–	330	1140
LCTLSIPPQCY (disulfide 2-10 (inferred), disulfide bond between the two Cys) [EC2]	–	–	910	3190
LCTASIPPICR (disulfide 2-10 (inferred), disulfide bond between the two Cys) [EC21]	–	–	4370	15300
LCTASIPPQCY (disulfide 2-10 (inferred), disulfide bond between the two Cys) [EC1]	–	–	330	1170
YCTASIPPQCY (disulfide 2-10 (inferred), disulfide bond between the two Cys) [EC14]	–	–	2040	7140
[hCys]GRATKSIPPIAF[hCys] (disulfide 1-14) [BT29]	10600	2260	–	–
CGRATKSIPPIAFC (disulfide 1-14 (inferred)) [BT11]	2200	470	–	–
CGRATKSIPPIAFGC (disulfide 1-15 (inferred)) [BT32]	1540	330	–	–
GTCTRSIPPICNPN (disulfide 3-11 (inferred)) [BT23]	1820	390	–	–
CGRATKS[Nle]PPICF (disulfide 1-12 (inferred)) [BT28]	290	60	–	–
CGRATKSIPPIAC (disulfide 1-13 (inferred)) [BT13]	31500	6700	–	–
CGAKGTKSIPPICFPD (disulfide 1-13 (inferred)) [BT2]	3030	650	–	–
CGAKATKSIPPICFPD (disulfide 1-13 (inferred)) [BT3]	680	140	–	–
[hCys]GRATKSIPPIAFG[hCys] (disulfide 1-15) [BT33]	5570	1190	–	–
CGRATKSLPPACF (disulfide 1-12 (inferred)) [BT14]	1650	350	–	–
CWTKSIPPKPC (disulfide 1-11 (inferred)) [BT36]	4650	990	–	–
RCTKSLPPQCS (disulfide 2-10 (inferred)) [BT65]	620	130	–	–
RCTKSIPPICF (disulfide 2-10 (inferred), also called truncated monocyclic SFTI-1 mutant) [BT45]	30	6.4	–	–
RCTKSIPPHCF (disulfide 2-10 (inferred)) [BT62]	70	10	–	–
RCTRSIPPHCW (disulfide 2-10 (inferred)) [BT61]	890	190	–	–
RCTKSIPPQCH (disulfide 2-10 (inferred)) [BT63]	90	20	–	–

— patent US20230416329A1 (INSTITUTE OF MATERIA MEDICA CHINESE ACADEMY OF MEDICAL …, published 2023)
